This data set can be described thus: soluble on expression in E. coli; label from the status in PepcDB or PDB records.
Consider “MGSDKIHHHHHHMAYIKRTIETTIENAAKMFSTVLITGARQVGKTTVLKHITEDISYLTLDDPILLLNAFEEAGSFFKSTPPPVIIDEIQYAPNLFPYIKMIADENGKRGQFYLTGSQQFKMMKNVSESLAGRIGIINLLGLSLREIKGDADFNKAFIPTESYLETRRLSAKELNYKEIWKIIYKGSMPAMYADELDWQLFYGSYTKTYLERDVRELTQVGDELKFIKFMTAMASRTSQMLNLTSIANEVGISVPTADRWLSILVSSNIVYLLKPYYNNIMKRAVKTPKLYFLDTGLAAYLTKWNSPDVIEAGAMSGAFFETFVLAEILKGYYNAGILEPALYYYRDKDAKEIDIILEENGTLYPIEIKKTANPSKEHIANFSVLDRLKDMKIGTGCVICMYDKVIHINDNNVSIPVTWL”, for which the “soluble on expression in E. coli” value was “not soluble”. Then “MSLMKITSVDIIDVANDFASATSKWRPVVVKINTDEGISGFGEVGLAYGVGASAGIGMAKDLSAIIIGMDPMNNEAIWEKMLKKTFWGQGGGGIFSAAMSGIDIALWDIKGKAWGVPLYKMLGGKSREKIRTYASQLQFGWGDGSDKDMLTEPEQYAQAALTAVSEGYDAIKVDTVAMDRHGNWNQQNLNGPLTDKILRLGYDRMAAIRDAVGPDVDIIAEMHAFTDTTSAIQFGRMIEELGIFYYEEPVMPLNPAQMKQVADKVNIPLAAGERIYWRWGYRPFLENGSLSVIQPDICTCGGITEVKKICDMAHVYDKTVQIHVCGGPISTAVALHMETAIPNFVIHELHRYALLEPNTQTCKYNYLPKNGMYEVPELPGIGQELTEETMKKSPTITVKEGHHHHHH”, with “soluble”; and “MIALDQHLTEHKKDITQQWLEVCTSNGSWLYSAKDQQKLGQKLKDQHELLVTIVAKSLRKEDVEDELNRWSLQCARDRAVHEVTVTQSFGQFNTFRHIMFEWIHKFSEASSQDISIQEFYEWSRILNQNIDEIIEVFTEEYHQVTMIQLNAQKEMINELSAPIMPITDGIGILPLVGEIDTHRARTILESVLEQCSALKLSYLFLDISGVPIVDTMVAYQIFKVIDSTKLLGIETIISGIRPEIAQTVVKLGLDFSNVKTEQSLAKALANKGFKIKEC”, with “not soluble”. Then “MQNPIDSLLYVKISAEQAGKIFENLESSIPLPIQLSEPGQKEDFKAENIKPEMILAGMLTVFAYDRENPHITYYRKIFNLLRPDIRKEMTEAAIIKIKNNDFDMAEEILLSLEGLNPDDGITKLNLALLMEERSQFCEMRELFEDALSFNKRAEELYSELILFEPPLPGVFFNAAYFFIKQKNYIKAKSLLKTYLEIENDSSETAEFRKAKASELLKTISEQALDDELFQKAYKCIDLGEEEKAAESIKLFLRKNPKVWNAWFLLGWALRRMGRWEDARSSFLKTIELLENSEISDKEPLCDVYNELAICLMELELFDEAEKHLINALSLDSENIKIISNLGTLALKQGKQEEAEAFFRTVLEINPDDKIALNVLGKPRA”, with “not soluble”. As for “MGSDKIHHHHHHMTTTSPDISRFGPIGLVVIQSTSLCNLDCSYCYLPDRKSRKIFDLELLPLLMQRIFESPFFGEELSLVWHAGEPLTLPCSYYDRATQLINEAVEQWTNGTVHVEQHVQTNATLINDAWCECFRRNKIIVGISVDGPKDIHDANRCFGNGEGSHVHSMRGIEALKRNKIPFHAIAVVTATAMDHPNEMYQFFRDNEIHSVGFNVEEQEGEHTSSSMQGYEREEQYRQFLESFWQLSEQDGFPVVLREFDQVISLIRENRRLNQNELNRPYSILSVDWQGNFSTFDPELLSVSSKLYGTFDLGSIRNISLMEAAKTERFQTLWKDMLSGVKRCEKECNYFGFCGGGMGSNKFWEHGSLNCSETNACRFNNKIPVDVLLDRFKSSPPIDNETPF”, the entry is “not soluble”.

As to “METEIPVNEKETSFRRRVYTTIETLIDIENTDQLQEHLPHLHCLGWDEVVEERYVNKQCGFPSCQKAPPKITRNQMFEIDRKEGKIFEFRKQRAKFCSEMCYQKSSFVRKQLDEHPLWITGLTEARTQKVYEVPDESFVSPIAEKSEPVDSQFKKEPSIWLVTDSIIAKVQDMKLSEEAEEPKSLDPEDQDIEPFKLTDDDKDFIKSIKEFRNSNFGPPSTSKLLKTAPKPVLSAKDRKKEDEVLAKLRAKYGNKNALQKKPPILIEAQEIHSKLKTMEKAKEAWLVDLIKSWFTPETRKLVREGARPTGGAAEQILMDFLSGKKVDAEKLVNLPNLDKYNVKEKRLNIFLHSIRNHWMDLEARLHLTPTRRDILSRVASTFQLDSENITGWTKREINSIVIALFIVICLVDVELGDDYFKKDNASPELTAISNELCGLDSFQITGLHAAIKSQC”, the “soluble on expression in E. coli” value is given as “not soluble”. Then “MSRTAKPQNGRRRFLRDVVRTAGGLAAVGVALGLQQQTARASGVRLRPPGALNENVFASACVRCGQCVQACPYDTLKLATLASGLSAGTPYFVARDIPCEMCEDIPCAKVCPSGALNKDIASIDDSRMGLAVLLDQENCLNFQGLRCDVCYRECPKIDEAITLELDRNMRTGKHARFLPTVHSDACTGCGKCEKVCVLEQPAIKVLPLSLAKGELGHHYRFGWLEGKDGKS”, with “not soluble”; and “MNLTQMLPDLDDVPESLLDEAIFDSFLSWTRSKDLALYPAQEEAALGILAGDNVILATPTGSGKSMVAIAAHFIAMARGQRSFYTAPIKALVNEKFFALCDIFGPESVGMMTGDATVNGSAPIICATAEIVANIALRDGTDADIDQVVMDEFHYYSEPGRGWAWQVPLLELPRTQFLLMSATLGDTTFIQKDLSDRTGRTTNLVAGATRPVPLQFSYVYTPVHETIQDLLDTNNAPIYVVHFTQREAIERAQSLTSMTVIDSETKEKIATEIGNFKFTTTFGHTLSKLLRKGIGVHHAGMLPKYRRLVEKLSQTGLLKIICGTDTLGVGINVPIRTVLFTGLAKFDGSKQRILASREFHQIAGRAGRAGYDTVGNVVIEAPEHEIENWRLRQRAGSDLKKLKKLRKKSARDGEVTWGEKTYERLSEAEPENLQSQFRISNSMLLNVIARSGDAYVHLKHLLRTNHDTRDKQNKDILTALELFRGLVAAGIVEKLDSPDSTGRKYVITEDLRRDFALNQPLAPFALAALEILDKESTSYALDVISVFESILEDPRVVLIAQQKQARGEEIAALKAEGVEYTERMNIVEEISWPKPLEEILEPAFDTYCSGHPWAKEFTLSPKSIVRDMIEHGMTFSDFIATYGLSRSEGVVLHYLTDAWKTLSHSVPTEYVSDELEEIIEWLGELVRQVDSSLIDEWANMADPDAPISQDTVDQQRAFGVEDPNAITANSRAFAVMVRNLMFRMVQLFAAEEEEKLEALTDYLDEQPDFSEALDVYFDEYSDLDVGPDARGREYFLLKKDGRIWSVRQIIKDPNDDRAFSFAATVDLNASDAADEVRFAKFSIDS”, with “not soluble”. Regarding “MGSDKIHHHHHHMTVWRFKKSQKGLVGVDITSATVKLIELESSGAGHRIASYAVRPLHEGAVVERRIRDLDEVANTLTRAVEHARPHSRRAVAAVPASAAITKTLTYPASLTDDEIEARIQLESERHIPFPLNEVAFDFQRLGLNARYPDQQDILLVACRLQDVDRLADVLRRAGLEPAAVDVETFAMERAAGELLLGQAASQPDDECVALVDIGANMNAFHVLIDGRIAYTRDNVLGGRHLTEEIRKRYGLSLEEAGLAKKRGGLPEDYELEVLTPYIDMLIQQVGRSLQLYYTSGKPRDIQRLVLAGGSSVIPGLRERLAAQSGLEVVMANPFSRMRVASRVDVQALASDAPAMLTACGLAMRGRR”, the “soluble on expression in E. coli” value is “not soluble”. Then “MGANALDFYPEPLREEIERLNGRIYPAVNNGVYRAGFATRQDAYEEAFVQLFEELDYLEGLLGERRYLAGEYLTEADIRLFTTLVRFDAVYHGHFKCNLRRIEDYPNLSGWLRELYQRPGIGETVLEHHHHHH”, with “not soluble”; and “MCFRIADGTFFGWEGCFFQAGSCPGTCTHVWNYAQTVANLFPRLERNMRETEFLRETDGQGKMNFRAKIQLEGKPWDMYPAVDGQLGSILRVYREWKISGDDDFLKKIWNQVVSALEFSASYWDSNQDCVLDGQQHNTYDIEFYGVNSLGNSIYYAALKAGAEMAEYLGEHERSQKWRSMEQAGCKRMDEMLFNGEYYRQVTDGDIDEYKYQYGEGCLSDQLLGQTLAHLYGLGHLFPEDHVKSAVFAIYKYNFKERMGSHKSLQRGYAYQDEPGLLLCSWPSGGRPKQPFVYSDEVWTGIEYQVAAGLIYEGFLQEGLEIVRAVRSRYDGYKRNPFNEVECGNHYARSMASWGVLNALSGLQVDLPHNSVTISPKVNQDCFSSFYSTGTEWGICRQFKDQSGALIQSFEALYHADLEHHHHHH”, with “not soluble”.
